{
  "source": "the Human Domainome abundance scans (Beltran et al. 2025)",
  "note": "± gives the uncertainty stated by the source.",
  "data": [
    {"test": "abundance fitness (aPCA) (normalised: wild type 0, dead -1); higher = more abundant; growth selection in yeast, the domain comes from the species named", "settings": "Homo sapiens", "values": [
      {"substance": "E3 ubiquitin-protein ligase NEDD4-like E232I, Q96PU5", "abundance fitness": "-0.5 ± 0.31"},
      {"substance": "E3 ubiquitin-protein ligase NEDD4-like E232K, Q96PU5", "abundance fitness": "-1.37 ± 0.43"},
      {"substance": "E3 ubiquitin-protein ligase NEDD4-like E232L, Q96PU5", "abundance fitness": "-0.158 ± 0.19"},
      {"substance": "E3 ubiquitin-protein ligase NEDD4-like E232M, Q96PU5", "abundance fitness": "-0.402 ± 0.12"},
      {"substance": "E3 ubiquitin-protein ligase NEDD4-like E232N, Q96PU5", "abundance fitness": "0.022 ± 0.072"},
      {"substance": "E3 ubiquitin-protein ligase NEDD4-like E232P, Q96PU5", "abundance fitness": "0.216 ± 0.17"},
      {"substance": "E3 ubiquitin-protein ligase NEDD4-like E232R, Q96PU5", "abundance fitness": "-0.999 ± 0.24"},
      {"substance": "E3 ubiquitin-protein ligase NEDD4-like E232V, Q96PU5", "abundance fitness": "-0.901 ± 0.18"},
      {"substance": "E3 ubiquitin-protein ligase NEDD4-like E232W, Q96PU5", "abundance fitness": "-0.98 ± 0.33"},
      {"substance": "E3 ubiquitin-protein ligase NEDD4-like E232Y, Q96PU5", "abundance fitness": "-0.413 ± 0.27"},
      {"substance": "E3 ubiquitin-protein ligase NEDD4-like G198A, Q96PU5", "abundance fitness": "-0.032 ± 0.069"},
      {"substance": "E3 ubiquitin-protein ligase NEDD4-like G198C, Q96PU5", "abundance fitness": "-0.171 ± 0.092"},
      {"substance": "E3 ubiquitin-protein ligase NEDD4-like G198E, Q96PU5", "abundance fitness": "-0.691 ± 0.092"},
      {"substance": "E3 ubiquitin-protein ligase NEDD4-like G198F, Q96PU5", "abundance fitness": "-0.15 ± 0.086"},
      {"substance": "E3 ubiquitin-protein ligase NEDD4-like G198H, Q96PU5", "abundance fitness": "-0.197 ± 0.11"},
      {"substance": "E3 ubiquitin-protein ligase NEDD4-like G198I, Q96PU5", "abundance fitness": "-0.765 ± 0.15"},
      {"substance": "E3 ubiquitin-protein ligase NEDD4-like G198K, Q96PU5", "abundance fitness": "-0.103 ± 0.087"},
      {"substance": "E3 ubiquitin-protein ligase NEDD4-like G198L, Q96PU5", "abundance fitness": "-0.209 ± 0.054"},
      {"substance": "E3 ubiquitin-protein ligase NEDD4-like G198M, Q96PU5", "abundance fitness": "-0.058 ± 0.092"},
      {"substance": "E3 ubiquitin-protein ligase NEDD4-like G198N, Q96PU5", "abundance fitness": "-0.095 ± 0.11"},
      {"substance": "E3 ubiquitin-protein ligase NEDD4-like G198P, Q96PU5", "abundance fitness": "-0.077 ± 0.074"},
      {"substance": "E3 ubiquitin-protein ligase NEDD4-like G198Q, Q96PU5", "abundance fitness": "-0.075 ± 0.06"},
      {"substance": "E3 ubiquitin-protein ligase NEDD4-like G198R, Q96PU5", "abundance fitness": "-0.238 ± 0.06"},
      {"substance": "E3 ubiquitin-protein ligase NEDD4-like G198S, Q96PU5", "abundance fitness": "-0.139 ± 0.057"},
      {"substance": "E3 ubiquitin-protein ligase NEDD4-like G198T, Q96PU5", "abundance fitness": "-0.239 ± 0.075"},
      {"substance": "E3 ubiquitin-protein ligase NEDD4-like G198V, Q96PU5", "abundance fitness": "-0.291 ± 0.062"},
      {"substance": "E3 ubiquitin-protein ligase NEDD4-like G198W, Q96PU5", "abundance fitness": "-0.324 ± 0.095"},
      {"substance": "E3 ubiquitin-protein ligase NEDD4-like G198Y, Q96PU5", "abundance fitness": "-0.049 ± 0.069"},
      {"substance": "E3 ubiquitin-protein ligase NEDD4-like G207A, Q96PU5", "abundance fitness": "-0.252 ± 0.052"},
      {"substance": "E3 ubiquitin-protein ligase NEDD4-like G207D, Q96PU5", "abundance fitness": "-0.162 ± 0.056"},
      {"substance": "E3 ubiquitin-protein ligase NEDD4-like G207E, Q96PU5", "abundance fitness": "-0.312 ± 0.066"},
      {"substance": "E3 ubiquitin-protein ligase NEDD4-like G207F, Q96PU5", "abundance fitness": "-0.423 ± 0.056"},
      {"substance": "E3 ubiquitin-protein ligase NEDD4-like G207H, Q96PU5", "abundance fitness": "-0.171 ± 0.066"},
      {"substance": "E3 ubiquitin-protein ligase NEDD4-like G207I, Q96PU5", "abundance fitness": "-0.96 ± 0.061"},
      {"substance": "E3 ubiquitin-protein ligase NEDD4-like G207K, Q96PU5", "abundance fitness": "-0.128 ± 0.063"},
      {"substance": "E3 ubiquitin-protein ligase NEDD4-like G207L, Q96PU5", "abundance fitness": "-0.432 ± 0.052"},
      {"substance": "E3 ubiquitin-protein ligase NEDD4-like G207M, Q96PU5", "abundance fitness": "-0.27 ± 0.067"},
      {"substance": "E3 ubiquitin-protein ligase NEDD4-like G207N, Q96PU5", "abundance fitness": "0.042 ± 0.067"},
      {"substance": "E3 ubiquitin-protein ligase NEDD4-like G207P, Q96PU5", "abundance fitness": "-0.756 ± 0.053"},
      {"substance": "E3 ubiquitin-protein ligase NEDD4-like G207Q, Q96PU5", "abundance fitness": "-0.192 ± 0.069"},
      {"substance": "E3 ubiquitin-protein ligase NEDD4-like G207R, Q96PU5", "abundance fitness": "-0.252 ± 0.051"},
      {"substance": "E3 ubiquitin-protein ligase NEDD4-like G207S, Q96PU5", "abundance fitness": "-0.182 ± 0.048"},
      {"substance": "E3 ubiquitin-protein ligase NEDD4-like G207T, Q96PU5", "abundance fitness": "-0.419 ± 0.055"},
      {"substance": "E3 ubiquitin-protein ligase NEDD4-like G207V, Q96PU5", "abundance fitness": "-0.803 ± 0.056"},
      {"substance": "E3 ubiquitin-protein ligase NEDD4-like G207W, Q96PU5", "abundance fitness": "-0.738 ± 0.077"},
      {"substance": "E3 ubiquitin-protein ligase NEDD4-like G207Y, Q96PU5", "abundance fitness": "-0.397 ± 0.06"},
      {"substance": "E3 ubiquitin-protein ligase NEDD4-like H186A, Q96PU5", "abundance fitness": "-0.362 ± 0.069"},
      {"substance": "E3 ubiquitin-protein ligase NEDD4-like H186C, Q96PU5", "abundance fitness": "-0.282 ± 0.093"},
      {"substance": "E3 ubiquitin-protein ligase NEDD4-like H186D, Q96PU5", "abundance fitness": "0.168 ± 0.082"},
      {"substance": "E3 ubiquitin-protein ligase NEDD4-like H186E, Q96PU5", "abundance fitness": "-1.69 ± 0.14"},
      {"substance": "E3 ubiquitin-protein ligase NEDD4-like H186F, Q96PU5", "abundance fitness": "-0.111 ± 0.12"},
      {"substance": "E3 ubiquitin-protein ligase NEDD4-like H186G, Q96PU5", "abundance fitness": "-0.461 ± 0.067"},
      {"substance": "E3 ubiquitin-protein ligase NEDD4-like H186I, Q96PU5", "abundance fitness": "0.086 ± 0.12"},
      {"substance": "E3 ubiquitin-protein ligase NEDD4-like H186K, Q96PU5", "abundance fitness": "-0.222 ± 0.079"},
      {"substance": "E3 ubiquitin-protein ligase NEDD4-like H186L, Q96PU5", "abundance fitness": "-0.185 ± 0.074"},
      {"substance": "E3 ubiquitin-protein ligase NEDD4-like H186M, Q96PU5", "abundance fitness": "-0.349 ± 0.1"},
      {"substance": "E3 ubiquitin-protein ligase NEDD4-like H186N, Q96PU5", "abundance fitness": "-0.123 ± 0.13"},
      {"substance": "E3 ubiquitin-protein ligase NEDD4-like H186P, Q96PU5", "abundance fitness": "-0.292 ± 0.081"},
      {"substance": "E3 ubiquitin-protein ligase NEDD4-like H186Q, Q96PU5", "abundance fitness": "-0.511 ± 0.1"},
      {"substance": "E3 ubiquitin-protein ligase NEDD4-like H186R, Q96PU5", "abundance fitness": "-0.59 ± 0.061"},
      {"substance": "E3 ubiquitin-protein ligase NEDD4-like H186S, Q96PU5", "abundance fitness": "-0.185 ± 0.076"},
      {"substance": "E3 ubiquitin-protein ligase NEDD4-like H186T, Q96PU5", "abundance fitness": "-0.288 ± 0.11"},
      {"substance": "E3 ubiquitin-protein ligase NEDD4-like H186V, Q96PU5", "abundance fitness": "-0.045 ± 0.058"},
      {"substance": "E3 ubiquitin-protein ligase NEDD4-like H186W, Q96PU5", "abundance fitness": "-1.24 ± 0.064"},
      {"substance": "E3 ubiquitin-protein ligase NEDD4-like H186Y, Q96PU5", "abundance fitness": "-0.095 ± 0.12"},
      {"substance": "E3 ubiquitin-protein ligase NEDD4-like H214F, Q96PU5", "abundance fitness": "-0.07 ± 0.1"},
      {"substance": "E3 ubiquitin-protein ligase NEDD4-like H214I, Q96PU5", "abundance fitness": "-0.005 ± 0.078"},
      {"substance": "E3 ubiquitin-protein ligase NEDD4-like H214K, Q96PU5", "abundance fitness": "0.032 ± 0.081"},
      {"substance": "E3 ubiquitin-protein ligase NEDD4-like H214L, Q96PU5", "abundance fitness": "-0.05 ± 0.051"},
      {"substance": "E3 ubiquitin-protein ligase NEDD4-like H214M, Q96PU5", "abundance fitness": "0.011 ± 0.083"},
      {"substance": "E3 ubiquitin-protein ligase NEDD4-like H214N, Q96PU5", "abundance fitness": "-0.032 ± 0.11"},
      {"substance": "E3 ubiquitin-protein ligase NEDD4-like H214P, Q96PU5", "abundance fitness": "-0.063 ± 0.077"},
      {"substance": "E3 ubiquitin-protein ligase NEDD4-like H214Q, Q96PU5", "abundance fitness": "-0.211 ± 0.089"},
      {"substance": "E3 ubiquitin-protein ligase NEDD4-like H214R, Q96PU5", "abundance fitness": "-0.005 ± 0.068"},
      {"substance": "E3 ubiquitin-protein ligase NEDD4-like H214S, Q96PU5", "abundance fitness": "-0.035 ± 0.057"},
      {"substance": "E3 ubiquitin-protein ligase NEDD4-like H214T, Q96PU5", "abundance fitness": "-0.062 ± 0.067"},
      {"substance": "E3 ubiquitin-protein ligase NEDD4-like H214V, Q96PU5", "abundance fitness": "-0.026 ± 0.058"},
      {"substance": "E3 ubiquitin-protein ligase NEDD4-like H214W, Q96PU5", "abundance fitness": "-0.068 ± 0.066"},
      {"substance": "E3 ubiquitin-protein ligase NEDD4-like H214Y, Q96PU5", "abundance fitness": "0.035 ± 0.088"},
      {"substance": "E3 ubiquitin-protein ligase NEDD4-like H222C, Q96PU5", "abundance fitness": "-0.052 ± 0.094"},
      {"substance": "E3 ubiquitin-protein ligase NEDD4-like H222D, Q96PU5", "abundance fitness": "0.071 ± 0.067"},
      {"substance": "E3 ubiquitin-protein ligase NEDD4-like H222E, Q96PU5", "abundance fitness": "-0.013 ± 0.083"},
      {"substance": "E3 ubiquitin-protein ligase NEDD4-like H222F, Q96PU5", "abundance fitness": "-0.052 ± 0.089"},
      {"substance": "E3 ubiquitin-protein ligase NEDD4-like H222G, Q96PU5", "abundance fitness": "-0.07 ± 0.06"},
      {"substance": "E3 ubiquitin-protein ligase NEDD4-like H222I, Q96PU5", "abundance fitness": "-0.251 ± 0.1"},
      {"substance": "E3 ubiquitin-protein ligase NEDD4-like H222K, Q96PU5", "abundance fitness": "0.251 ± 0.1"},
      {"substance": "E3 ubiquitin-protein ligase NEDD4-like H222L, Q96PU5", "abundance fitness": "-0.088 ± 0.056"},
      {"substance": "E3 ubiquitin-protein ligase NEDD4-like H222M, Q96PU5", "abundance fitness": "0.173 ± 0.093"},
      {"substance": "E3 ubiquitin-protein ligase NEDD4-like H222N, Q96PU5", "abundance fitness": "-0.027 ± 0.11"},
      {"substance": "E3 ubiquitin-protein ligase NEDD4-like H222P, Q96PU5", "abundance fitness": "-0.133 ± 0.063"},
      {"substance": "E3 ubiquitin-protein ligase NEDD4-like H222Q, Q96PU5", "abundance fitness": "-0.022 ± 0.1"},
      {"substance": "E3 ubiquitin-protein ligase NEDD4-like H222R, Q96PU5", "abundance fitness": "-0.016 ± 0.057"},
      {"substance": "E3 ubiquitin-protein ligase NEDD4-like H222T, Q96PU5", "abundance fitness": "0.081 ± 0.076"},
      {"substance": "E3 ubiquitin-protein ligase NEDD4-like H222V, Q96PU5", "abundance fitness": "-0.045 ± 0.059"},
      {"substance": "E3 ubiquitin-protein ligase NEDD4-like H222W, Q96PU5", "abundance fitness": "-0.218 ± 0.071"}
    ]}
  ]
}
